For data set [1], the system named is monocyte enriched peripheral blood mononuclear cells (MEPs). Kind of data set: SDHB c.136C>U RNA editing in interferon-treated MEPs (RT-PCR). The data set is classed as cell-based, human. The following applies: normoxic or hypoxic MEPs, 24 hours; IFN1 600 U per ml, IFNγ 200 U per ml; vs untreated. An excerpt:
The TLA-HEK293T™ 293T human embryonic kidney cell-line was obtained from Open Biosystems® (Huntsville, Ala.). Peripheral blood mononuclear cells of anonymous platelet donors were isolated from peripheral blood in Trima Accel™ leukoreduction system chambers (Terumo BCT®, Lakewood, Colo.) after thrombocytapheresis, in accordance with a protocol approved by the institutional review board of Roswell Park Cancer Institute. A density gradient centrifugation method using polysucrose-containing Lymphocyte Separation Medium (Mediatech®, Manassas, Va.) was used for PBMC isolation. […]
For hypoxia, cells were cultured under 1% O2, 5% CO2 and 94% N2 in an Xvivo™ System (Biospherix®, Lacona, N.Y.). […] Differential viability of MEPs after 1-day culture in normoxia versus hypoxia was not observed as evaluated by Trypan blue stain. […]
SDHB gene expression and c.136C>U RNA editing was quantified by RT-PCR. […]

The next data set deals with NK cells. The data set can be described thus: TM7SF3 C>U RNA editing in NK cells. The data set is classed as cell-based, human. To be noted: cellular crowding with hypoxia, IFN-γ 50 ng/ml. The procedure:
The HuT78, JVM3 and NK-92 cell-lines were obtained from ATCC. Hut 78 cells were cultured in IMDM (ATCC) containing 20% Fetal Bovine serum (FBS) (Sigma-Aldrich), JVM3 cells were cultured in RPMI (ATCC) containing 10% FBS and NK-92 cells were cultured in Alpha Minimum Essential medium without ribonucleosides and deoxyribonucleosides (Life Technologies) but with 2 mM L-glutamine and 1.5 g/L sodium bicarbonate as well as 0.2 mM inositol, 0.1 mM 2-mercaptoethanol, 0.02 mM folic acid, 500 U/ml IL-2 (Aldesleukin—a kind gift from Novartis), 12.5% horse serum (ATCC) and 12.5% FBS. […]
Total RNA was isolated and reverse transcribed to generate cDNAs. […] To quantify RNA editing level, the major and minor chromatogram peak heights at putative edited nucleotides were quantified with Sequencher 5.0/5.1 software (Gene Codes, MI). […] For quantitative PCR to assess APOBEC3G and APOBEC3F gene expression, reactions using LightCycler™ 480 Probes Master and SYBR™ Green I dye were performed on a LightCycler™ 480 System (Roche). Quantification cycle (Cq) values were calculated by the instrument software using the maximum second derivative method, and the mean Cq value of duplicate PCR reactions was used for analysis.

The results in this text go back to US20190352644A1, “INHIBITION OF MITOCHONDRIAL HYPOXIC STRESS INDUCED RNA EDITING BY APOBEC3G CYTIDINE DEAMINASE” (Health Research, Inc., priority 2015, published 2019).

B1: IFNγ: Human IFNγ (PBL Assay Science; PeproTech in Example 3) (protein, UniProt P01579 24-161, looked up)
Interferon gamma: QDPYVKEAENLKKYFNAGHSDVADNGTLFLGILKNWKEESDRKIMQSQIVSFYFKLFKNFKDDQSIQKSVETIKEDMNVKFFNSNKKKRDDFEKLTNYSVTDLNVQRKAIHELIQVMAELSPAAKTGKRKRSQMLFRG
With B1, the “increase of SDHB c.136C>U RNA editing level” value in data set [1] is reported as roughly 3 fold. The “RNA editing in TM7SF3” value with NK cells is listed as “did not further increase”.
